According to patent US20140294863A1, “SERUM ALBUMIN BINDING PEPTIDES FOR TUMOR TARGETING” (GENENTECH, INC., priority 2002, published 2014):
Each block holds one molecule with its values, some of them ahead of it. Bridges are numbered along the chain shown (N, C = ends). Where no end group is shown, it is not given here.

Experiments:
mouse albumin = molecular target: T1, mouse albumin (Mus musculus, UniProt P07724); assay: Direct Binding ELISA, AB.Fab variants on immobilized mouse albumin; settings: average and SD of at least 3 determinations
T1 construct: purchased Sigma
Procedure: (§1) Mouse, rat, or rabbit albumin (Sigma, St. Louis, Mo.) were immobilized onto NUNC Maxisorp™ 96-well plates at 2 ug/ml overnight at 4° C. […] AB.Fab variants were serially diluted in binding buffer and added at 100 μl per well to the immobilized albumin for 30 minutes at 25° C. Unbound AB.Fab variant was removed by washing wells with 0.05% PBS/Tween® 20 and bound AB.Fab variant was detected with goat anti-human Fab′2-HRP for 1 hour at 25° C. Bound HRP was measured with a solution of tetramethylbenzidine (TMB)/H202. After 15 minutes, the reaction was quenched by the addition of 1M phosphoric acid.
(§2) Initially we explored binding of the AB.Fab variants to immobilized albumin using a Direct Binding ELISA.

rat albumin [1] = molecular target: T2, rat albumin (Rattus norvegicus, UniProt P02770); assay: Direct Binding ELISA, AB.Fab variants on immobilized rat albumin; set-up: purchased Sigma; settings: average and SD of at least 3 determinations
Procedure: as §1, §2

rabbit albumin [2] = molecular target: T3, rabbit albumin (Oryctolagus cuniculus, UniProt P49065); assay: Direct Binding ELISA, AB.Fab variants on immobilized rabbit albumin; set-up: purchased Sigma; settings: average and SD of at least 3 determinations
Procedure: as §1, §2

rat albumin [3] = molecular target: T2, rat albumin; assay: Solution Binding ELISA, AB.Fab variants with soluble rat albumin; set-up: purchased Sigma; settings: Rat Albumin, soluble; Scatchard; average and SD of at least 3 determinations; read-out: Solution Binding ELISA (Kd)
rat albumin [4] = molecular target: T2, rat albumin; settings: FIG. 3
rabbit albumin [5] = molecular target: T3, rabbit albumin; settings: FIG. 3
TF and albumin = assay: biotin-TF binding assay (fusion on immobilized albumin detected with biotinylated TF); settings: FIG. 8
Description: Purified D3H44 fusions retained their ability to bind TF as measured using a FX activation assay (FIG. 5), and a prothrombin time assay that measures prolongation of tissue factor dependent clotting (FIG. 6). The assay methods are described, for example, in Dennis et al., 2000, Nature 404: 465. […] Further, each of the albumin-binding fusions bound TF and albumin simultaneously. […] In this assay, binding of the D3H44 fusions to immobilized albumin was detected with biotinylated TF.

[6] = Pharmacokinetics of D3H44 variants in rabbits (TF binding ELISA); assay type: in vivo, rabbit; set-up: V1 Avg (Historical): unit not given here
Procedure: D3H44 variants were administered to rabbits as a 0.5 mg/kg bolus injection into the marginal ear vein. Each test group consisted of 3 rabbits (5 rabbits were used in the F(ab′)2 group). Serum samples were taken at the indicated time points, serially diluted, and the concentration of D3H44 was determined using a TF binding ELISA.
Pharmacokinetic analysis was performed using the test article plasma concentrations. Group mean plasma data for each test article conforms to a multi-exponential profile when plotted against the time post-dosing. The data were fit by a standard two-compartment model with bolus input and first-order rate constants for distribution and elimination phases. The general equation for the best fit of the data for i.v. administration was: c(t)=Ae^−αt+[…], where c(t) is the plasma concentration at time t, A and B are intercepts on the Y-axis, and α and β are the apparent first-order rate constants for the distribution and elimination phases, respectively. The α-phase is the initial phase of the clearance and reflects distribution of the protein into all extracellular fluid of the animal, whereas the second or β-phase portion of the decay curve represents true plasma clearance. Methods for fitting such equations are well known in the art. For example, A=D/V(α−k21)/(α−β), B=D/V (β−k21)/(α−β), and α and β (for α>β) are roots of the quadratic equation: r^2+(k12+k21+k10)r+k21k10=0 using estimated parameters of V=volume of distribution, k10=elimination rate, k12=transfer rate from compartment 1 to compartment 2 and k21=transfer rate from compartment 2 to compartment 1, and D=the administered dose.
Data analysis: Graphs of concentration versus time profiles were made using KaleidaGraph (KaleidaGraph™ V. 3.09 Copyright 1986-1997. Synergy Software. Reading, Pa.). Values reported as less than reportable (LTR) were not included in the PK analysis and are not represented graphically. Pharmacokinetic parameters were determined by compartmental analysis using WinNonlin software (WinNonlin® Professional V. 3.1 WinNonlin™ Copyright 1998-1999. Pharsight Corporation. Mountain View, Calif.). Pharmacokinetic parameters were computed as described in Ritschel W A and Kearns G L, 1999, IN: Handbook Of Basic Pharmacokinetics Including Clinical Applications, 5th edition, American Pharmaceutical Assoc., Washington, D.C.

[7] = in vivo; cited from earlier work
[8] = in vivo; cited from earlier work; remark: listed apart in the source
[9] = in vivo; cited from earlier work; remark: listed apart in the source
[10] = in vivo; cited from earlier work; remark: listed apart in the source
[11] = Summarized Pk Data (Historical)

T2 sequence (P02770 25-608): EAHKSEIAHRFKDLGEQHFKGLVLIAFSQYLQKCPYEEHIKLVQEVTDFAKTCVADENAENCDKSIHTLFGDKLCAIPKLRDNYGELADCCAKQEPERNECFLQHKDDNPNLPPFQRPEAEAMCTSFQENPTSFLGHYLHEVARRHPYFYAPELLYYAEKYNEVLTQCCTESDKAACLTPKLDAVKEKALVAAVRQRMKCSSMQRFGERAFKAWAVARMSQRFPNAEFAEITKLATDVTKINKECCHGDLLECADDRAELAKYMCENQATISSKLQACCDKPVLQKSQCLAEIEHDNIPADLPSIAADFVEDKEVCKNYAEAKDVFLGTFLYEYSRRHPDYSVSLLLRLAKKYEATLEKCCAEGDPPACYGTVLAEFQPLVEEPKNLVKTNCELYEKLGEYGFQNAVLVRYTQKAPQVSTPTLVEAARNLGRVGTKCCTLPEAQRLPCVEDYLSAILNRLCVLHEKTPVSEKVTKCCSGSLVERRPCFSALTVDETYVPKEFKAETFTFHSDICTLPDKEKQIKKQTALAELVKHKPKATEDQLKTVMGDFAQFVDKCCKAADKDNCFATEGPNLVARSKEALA
T3 sequence (P49065 25-608): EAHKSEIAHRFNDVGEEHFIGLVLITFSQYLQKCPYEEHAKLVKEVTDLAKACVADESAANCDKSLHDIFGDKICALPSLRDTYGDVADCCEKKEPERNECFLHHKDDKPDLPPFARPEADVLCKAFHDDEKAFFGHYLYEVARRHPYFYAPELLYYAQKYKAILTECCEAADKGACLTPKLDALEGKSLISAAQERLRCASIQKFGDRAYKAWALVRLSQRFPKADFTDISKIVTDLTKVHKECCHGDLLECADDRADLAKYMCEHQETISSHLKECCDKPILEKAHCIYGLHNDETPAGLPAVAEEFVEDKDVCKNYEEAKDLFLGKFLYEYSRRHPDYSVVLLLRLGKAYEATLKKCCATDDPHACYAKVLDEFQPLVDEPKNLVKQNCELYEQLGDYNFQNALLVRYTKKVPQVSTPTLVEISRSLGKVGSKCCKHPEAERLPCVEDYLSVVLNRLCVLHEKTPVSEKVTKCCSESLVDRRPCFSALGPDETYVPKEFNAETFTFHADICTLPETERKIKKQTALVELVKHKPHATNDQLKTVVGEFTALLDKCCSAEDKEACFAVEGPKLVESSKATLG
T1 sequence (P07724 25-608): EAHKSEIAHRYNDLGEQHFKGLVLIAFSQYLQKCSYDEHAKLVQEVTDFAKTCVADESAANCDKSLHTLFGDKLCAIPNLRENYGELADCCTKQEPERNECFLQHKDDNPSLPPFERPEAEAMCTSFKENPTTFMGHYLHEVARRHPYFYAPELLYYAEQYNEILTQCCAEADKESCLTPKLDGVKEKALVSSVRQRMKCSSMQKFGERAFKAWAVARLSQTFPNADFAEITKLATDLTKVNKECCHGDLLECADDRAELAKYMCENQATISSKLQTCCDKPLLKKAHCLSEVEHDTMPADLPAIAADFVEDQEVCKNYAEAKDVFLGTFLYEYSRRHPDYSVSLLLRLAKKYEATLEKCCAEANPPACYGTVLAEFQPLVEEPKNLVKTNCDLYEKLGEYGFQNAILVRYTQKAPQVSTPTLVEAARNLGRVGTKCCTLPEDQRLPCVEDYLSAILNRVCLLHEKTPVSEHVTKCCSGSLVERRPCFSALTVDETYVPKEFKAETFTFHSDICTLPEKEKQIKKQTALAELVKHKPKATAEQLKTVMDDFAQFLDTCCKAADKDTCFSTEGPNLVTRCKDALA

EC50 (mouse albumin): > 2 µM
EC50 (rat albumin [1]): > 1 µM
EC50 (rabbit albumin [2]): > 2 µM
Kd (rat albumin [3]): 2.43 ± 0.32 µM
Molecule: 4D5-H11: AB.Fab variant made by deletion in 4D5-H4 (Table 12) (DICLPRWGCL; disulfide 3-9 (inferred); also: part of Fab heavy chain)

Molecule: CC[C@H](C)[C@H](NC(=O)[C@H](CC(C)C)NC(=O)CNC(=O)[C@H](CCC(N)=O)NC(C)=O)C(=O)NCC(=O)N[C@@H](CC(=O)O)C(=O)N[C@H](C(=O)N[C@H]1CSSC[C@@H](C(=O)N[C@@H](CC(C)C)C(=O)N[C@@H](Cc2c[nH]c3ccccc23)C(=O)NCC(=O)N[C@@H](CC(=O)O)C(=O)N[C@@H](CO)C(=O)N[C@H](C(=O)N[C@@H](CCCCN)C(N)=O)C(C)C)NC(=O)CNC(=O)[C@H](Cc2c[nH]c3ccccc23)NC(=O)[C@H](CCCNC(=N)N)NC(=O)[C@@H]2CCCN2C(=O)[C@H](CC(C)C)NC1=O)[C@@H](C)CC [SA08]
inhibition of RD phage binding to rat albumin (rat albumin [4]): clearly blocked
inhibition of BA phage binding to rabbit albumin (rabbit albumin [5]): clearly blocked

simultaneous binding of TF and albumin (TF and albumin): did not bind albumin
Molecule: D3H44-Fab: Fab fragment of D3H44, a humanized antibody that binds human tissue factor (TF)
AUC Avg (Historical) [6, 11]: 9800 ng·h/mL
AUC/Dose Avg (Historical) [6, 11]: 19.7 (hr * ug/mL)(/(mg/kg)
CL Avg (Historical) [6, 11]: 0.863 mL/min/kg
K10-HL Avg (Historical) [6, 11]: 0.760 hr
V1 Avg (Historical) [6, 11]: 55.9
Vss Avg (Historical) [6, 11]: 0.127 L/kg
AUC Avg ([6]; rabbit, 0.5 mg/kg bolus i.v.): 5860 ng·h/mL
AUC/Dose Avg ([6]; rabbit, 0.5 mg/kg bolus i.v.): 14.8 (hr * ug/mL)/(mg/kg)
Cmax Avg ([6]; rabbit, 0.5 mg/kg bolus i.v.): 5000 ng/mL
MRT Avg ([6]; rabbit, 0.5 mg/kg bolus i.v.): 3.07 h
V1* Avg (initial distribution volume) ([6]; rabbit, 0.5 mg/kg bolus i.v.): 0.0906 L/kg

Molecule: albumin
half-life in mouse [7]: 24 h
half-life in rat [8]: 45.6 h
half-life in rabbit [9]: 133 h
half-life in man [10]: 456 h
